Test results published in patent publication US20150272076.

Tests used:
Assay in all cases: cell_activity
[1] = test system: FucT1_T01 TALEN right monomer (synthetic (TAL effector-FokI-type nuclease)?); settings: pair activity on full site SEQ 66, yeast 37C; 0.6 at 30C
[2] = test system: XylT_T03 TALEN right monomer (synthetic (TAL effector-FokI-type nuclease)?); settings: pair activity on full site SEQ 64, yeast 37C; 0.7 at 30C; protoplast NHEJ 34.4% XylT1, 28.2% XylT2 (Table 3)
[3] = test system: FucT1_T02/FucT2_T02 TALEN right monomer (synthetic (TAL effector-FokI-type nuclease)?); settings: pair activity with either left monomer (SEQ 68 or 69), yeast 37C; 0.7 at 30C
[4] = test system: FucT2_T01 TALEN right monomer (synthetic (TAL effector-FokI-type nuclease)?); settings: pair activity on full site SEQ 67, yeast 37C; 0.8 at 30C
[5] = test system: XylT_T04 TALEN left monomer (synthetic (TAL effector-FokI-type nuclease)?); settings: pair activity on full site SEQ 65, yeast 37C; 0.9 at 30C; protoplast NHEJ 73.8% XylT1, 63.9% XylT2 (Table 3)
[6] = test system: FucT1_T01 TALEN left monomer (synthetic (TAL effector-FokI-type nuclease)?); settings: pair activity on full site SEQ 66, yeast 37C; 0.6 at 30C
[7] = test system: FucT2_T01 TALEN left monomer (synthetic (TAL effector-FokI-type nuclease)?); settings: pair activity on full site SEQ 67, yeast 37C; 0.8 at 30C
[8] = test system: FucT1_T02 TALEN left monomer (synthetic (TAL effector-FokI-type nuclease)?)
[9] = test system: FucT2_T02 TALEN left monomer (synthetic (TAL effector-FokI-type nuclease)?)
[10] = test system: XylT_T03 TALEN left monomer (synthetic (TAL effector-FokI-type nuclease)?); settings: pair activity on full site SEQ 64, yeast 37C; 0.7 at 30C; protoplast NHEJ 34.4% XylT1, 28.2% XylT2 (Table 3)
[11] = test system: FucT1_T04/FucT2_T04 TALEN left monomer (synthetic (TAL effector-FokI-type nuclease)?); settings: pair activity on SEQ 70 and SEQ 71, yeast 37C; 0.5 at 30C
[12] = test system: FucT1_T04/FucT2_T04 TALEN right monomer (synthetic (TAL effector-FokI-type nuclease)?); settings: pair activity on SEQ 70 and SEQ 71, yeast 37C; 0.5 at 30C

Sequence: AATAAGCAATGGCGCAA (double strand) [FucT1_T01 target 2 (SEQ 54, printed as top strand)]
- activity (relative to I-SceI) [1]: 0.8

Sequence: ATCACTCTCTATCTCTA (double strand) [XylT_T03 target 2 (SEQ 50, printed as top strand)]
- activity (relative to I-SceI) [2]: 0.9

Sequence: CTCTGTTCGTTGCCCTA (double strand) [FucT_T02 target 2 (SEQ 58, printed as top strand)]
- activity (relative to I-SceI) [3]: 0.9

Sequence: GATAAACAATGGCGCAA (double strand) [FucT2_T01 target 2 (SEQ 56, printed as top strand)]
- activity (relative to I-SceI) [4]: 0.9

Sequence: TCTCTTCGCTCTCAACT (double strand) [XylT_T04 target 1 (SEQ 51)]
- activity (relative to I-SceI) [5]: 0.9

Sequence: TGAGATCGGCGTCAAAT (double strand) [FucT1_T01 target 1 (SEQ 53)]
- activity (relative to I-SceI) [6]: 0.8

Sequence: TGAGATCGTCGTCAAAT (double strand) [FucT2_T01 target 1 (SEQ 55)]
- activity (relative to I-SceI) [7]: 0.9

Sequence: TTCAAACGCACCCAATA (double strand) [FucT1_T02 target 1 (SEQ 57)]
- activity (relative to I-SceI) ([8]; pair activity on full site SEQ 68, yeast 37C, 0.7 at 30C, protoplast NHEJ 39.2% FucT1 (Table 3)): 0.9
- activity ([9]; FucT2_T02 pair on endogenous FucT1 (1-bp mismatch in left site), N. benthamiana protoplasts, control 0.79%): 46.5 % NHEJ

Sequence: TTCAAACGCACCCGATA (double strand) [FucT2_T02 target 1 (SEQ 59)]
- activity ([8]; FucT1_T02 pair on endogenous FucT2 (1-bp mismatch in left site), N. benthamiana protoplasts, control 0.14%): 24.7 % NHEJ
- activity (relative to I-SceI) ([9]; pair activity on full site SEQ 69, yeast 37C, 0.7 at 30C, protoplast NHEJ 45.0% FucT2 (Table 3)): 0.9

Sequence: TTCTTGTTTCTCTCTTC (double strand) [XylT_T03 target 1 (SEQ 49)]
- activity (relative to I-SceI) [10]: 0.9

Sequence: TTGCCTCTGTTCGTTGC (double strand) [FucT_T04 target 1 (SEQ 62)]
- activity (relative to I-SceI) [11]: 0.6

Sequence: TTTCTGGTTCGACTCGA (double strand) [FucT_T04 target 2 (SEQ 63, printed as top strand)]
- activity (relative to I-SceI) [12]: 0.6
